# Target: LC3 (microtubule-associated protein 1 light chain 3), endogenous (mouse (endogenous in mouse brain and cultured mouse neurons)) (UniProt Q91VR7)
# Assay: proximity ligation; cultured mouse cortical and cerebellar neurons (wild-type, L1_(687) and L1_(858–863) mutant), without or with L1 antibody 557 (50 µg/mL, 2 h) and without or with tat-LIRWT peptide; fixed, Duolink PLA with mouse L1 antibody C-2 and rabbit LC3 antibody; red spots per cell
substance,measurement,value
full-length L1 (neural cell adhesion molecule L1) (from UniProt P11627 20-1260) (natural protein),fold increase of L1/LC3 proximity ligation spots with L1 antibody 557 against unstimulated neurons,4 fold

# Reference: PMC10419456
